Data from the nanobody polyreactivity screen of Harvey et al. (2022).

Assay: yeast display, Sf9 membrane polyspecificity reagent, FACS + sequencing; frameworks hold sequencing errors
Procedure, shortened: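 After 36–48 hours of galactose induction, yeast (Saccharomyces cerevisiae BJ5465) displaying a synthetic nanobody library were stained at 4 °C for 1 hour with 10% biotinylated, detergent-solubilized Sf9 membrane reagent. Streptavidin microbeads enriched the stained cells before FACS sorting into low and high (top ~1%) gates on anti-HA and streptavidin fluorescence. Each clone's polyreactivity label reflects its gate of origin.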

Sequence	polyreactivity (PSR sort gate)
QVQLVESGGGLVQAGGSLRLSCAASGSTFGTYVMGWYRQAPGKERELVAAITYSGGSTYYADSVTGRFTISRDNAKNTVYLQMNSLKPEDTAVYYCNADVWSYWYKFDYWGQGTQVTVSS	high polyreactivity
QVQLVESGGGLVQAGGSLRLSCAASGRTFDYYAMGWYRQAPGKERELVARISWNGGSTRYADSVKGRFTISRDNAKNTVYLQMNSLKPEDTAVYYCAARYILLARKYDYWGQGTQVTVSS	high polyreactivity
QVQLVESGGGLVQAGGSLRLSCAASGRTIRYYAMGWYRQAPGKERELVAAITWSVGSTYYADSVKGRFTISRDNAKNTVYLQMNSLKPEDTAVYYCAARLYQLYYWGQGTQVTVSS	high polyreactivity
QVQLVESGGGLVQAGGSLRLSCAASGFTFARNAMGWYRQAPGKERELVAVISRGGSTNYADSVKGRFTISRDNAKNTVSLQLHSLKPEDTAVYYCATRSSRRSYYLGEFNYWGQGTQVTVSS	high polyreactivity
QVQLEESGGGLVQAGRSLRLSCAASGRIFTYYSMGWYRQAPWKERELVAAISRSGRTYYADSVKGRFTISRDNAKNTVYLQMNILIPEDTAVYYCAAEYYYSWFEYWGQGTQVTVSS	high polyreactivity
QVQLQESGGGLVQAGGCLSCTASGTIFGQGDMGWYRQAPGKERELVATINDGASTYYADSVKGRFTISRDKAKNTVYLQKNSLKPDDTAGYYCAVFTDITTYFGYWGQGTQLTVSS	low polyreactivity
QVQLVESGGGLVQAGGSLRLSCAASGRIFSFNAMGWYRQAPGKERELVAAISWSTGSTFYADSVKGRFTISRDNAKNTVYVQMNSLKPEDTAFYYCAREYYYRRGFFLRGYWGQGTQVTVSS	high polyreactivity
QVQLVESGGGLVQAGGSLRLSCAASGSTFWFYAMGWYRQAPGTERELVAVISNSGSTYYADSVKGRFTISRDNAKNTVYLQMNSLKPEDTEVYYCNKDGGGDSYWYDYWGQGTQVTVSS	low polyreactivity
QVQLVESGGGLVQAGGSLRLSCAASGLIFLWYVMGWYRQAPGKEREFVAAISWNGGGTYYADSVKGRFTISRDNAKNTVYLQMNSLKPDDTAVYYCAAQTYSNDYWGQGTQVTVSS	low polyreactivity
QVQLVESGGGLVQAGGSLRLSCAASGRTFWYYAMVWSRQAPGKERELVAGITFTGGRTYYADSVKGRFTISRDNSKNTVYLQMNSLKPEDTAVYYCAAAGLDVGRKDRDGYWGQGTQVTVSS	low polyreactivity
QVQLVESGGGLVQAGGSLRLSCAASGFIFRTYAMGWYRQAPRKERELVAAITYSAGSTYYADSVKGRFTISRDNAKNTVYLQMNSLKPEDTAVYYCNVRKTWYGYSVTGRYDYWGQGTQVTVSS	low polyreactivity
QVQLVESCGGLVQAGGSLRLSCASSGRTIDSKAMGWYRQAPGKERELVAAISWSGGSTYYADSVKGRFTISRDNAKNTVYLQMNSLKPEDTAVYYCNRLGRHAPATRYGYWGQGTQVTVSS	high polyreactivity
QVQLVESGGGLVQAGGSLRLSCAASGFTFYRNAMGWYRQAPRKERDLVAAISDSGGRTYYADSVKGRFTISRDNAMNTVYLQMNSLIPEDTAVYYCAADTVIWWVEYEYWGQGTQVTVSS	high polyreactivity
QVQLVESGGGLVQAGGSLRLSCAASGRIVKFYDMGWYRQAPGKEREFVAAISRRGSSTYYADSVKGRFTISRDNAKNTVYLQMNSLKPEDTAVYYCAADWTFGAIGYYYWGHGTQVTVSS	high polyreactivity
QVQLVESGGGLVQAGGSLRLSCAASGRIFPFYVMGWYRQAPGKERELVATINWSGGSTYYADSVKGRFTISRDNAKNTVYLQMNSLKPEDNAVYYCNAAPSDDYDYWGQGTQVTVSS	low polyreactivity
QFQLVESGGGLVQAGGSLRLSCAASGFTIYIYAKGWYRQAPGKERELVAAINFRGGSTYYADSVKGRFTISGDNAKKTVYLQLNSLKPEDTAVYYCAAVPRTYSGYYYWGQGTQVSVSS	high polyreactivity
QVQLVESGGGLVQAVGSLRLSCAASGRIFGYYVMGWYRQAPGKERELVAAITSNGGSTYYADSVKGRFTFSRDNAKNTVYLQMNSLKPEDTAVYYGNKDKRYYRYGYWGQGTQVTVSS	high polyreactivity
QVQLVESGGGLVQAGGSLRISCADSGSIFGYNAMGWYRQAPGKERELVAAISWSGGRTYYADSVKGRFTISRDNAKNTVSFQMNSLKPEDTAVYYCAAPSTGTYGSDYWGHGTQVTVSS	high polyreactivity
QVQLVESGGGLVQAGGSLRLSCAASGSIFARYAMGWYRQAPGTERELVAAISRNGGSTYYADSVKGRFTISRDNAKNTVYLQMNSLKPEDTAVYYCAASYYVLYTREYDYWGQGTQVTVSS	low polyreactivity
QVQIVESGGGLVQAGGSLRLSCAASGSIFSVYAMGWYRQAPGKERELVAAIRYGDTSTYYADSVKGRFTISRDNAKNTVYFQMNSLKPEDTAVYYCAADLYAYEREYWGQGTQVTVSS	low polyreactivity
QVQLVESGGGLVQAGGSLRLSCAASGLTFPYYSMGWYRQAPGKERVLVAAITKSGGSTYADSVKGRFTISRDNAKNTVYLQMNSLKPEDTAVYYCAAGRRKYGTKGRGDYWGQGTQVTVSS	low polyreactivity
QVQLVESGGGLVQAGGSLRLRCPASGFIFFWNTMGWYRQAPGKERELVAAISQSGDSTYYADSVKGRFTISRDSAKNTVYLQMNSLKPEDTAVYFWAADKKTITYRYDYWGLGTQVTVSS	low polyreactivity
QVQLVESGGGLVQAGGSLRLSCAASGRIFRYYAIGWYRQAPGKERELVAAISKSGGGTFYADSVKGRFTISRDNAKNTVYLQMNSLKPEDTAVYYCAARDKGLGKHDYWGQGTQVTVSS	low polyreactivity
QVQIVESGGGLVQAGGSLRLSCAASGRISEANAMGRYRQATWKERELVAAIDFSDGSTYYADSVKGRFTISRDNAKNTVYLQMNSLKPEDTAVYYCAADDQYYPYDYWGLGTQVTVSS	low polyreactivity
QVQLVESGGGLVQAGGSLRLSCAASGSTFPYNAMGWYRQAPGKERELLAAISWRGGRTYYADSVKGRFTISRDNAKNTVYLQMNSLKPEYTGVFYCAVVLSTYSYADYDYWGQGTHVTVSS	high polyreactivity
QVPLVESGVGLVQAGGSLRLSCAASGSIFSYYAMGWYRQATGKERELVAAITVRGGSTYYADSVKGRFSISRDNAKNTVYLQMYSLIPEDTAVYYCAAVWLDESFSYGPYYYWGQGTQVTVSS	low polyreactivity
QVQHVESGGGLVQAGGSLRLSCAASGSTFLANTMGWYRQAHGKERELVAAITRRGGSTRYADSVKGRFTISRDNAKNTVYLQMNSLKPEDTAVYYCAAPWFRDTRGYSLYDYWGQGTQVTVSS	high polyreactivity
QVQLVESGGGLVQAGGSLRLSCAASGSTFVPYAMGWYRPAPGKERELVAGITFSGGSTYYADSVKGRFTISRDNAKNTVYLQMNSLKPEDTAVYYCAAGGWRGHYYWGQGTQVTVSS	high polyreactivity
QVQLVESGGGLVQAGGSLRLSCAASGRTFLNYAMGWYRQAPGKEREFVAAITWRVGTTYYADSVKGRFTISRDNAKNTVYLQMNSLKPEDTAVYYCAARRSVGGYGYWGQGTQVTVSS	high polyreactivity
QVQLVESGGGLVQAGGSLRLSCAASGSIFGPYAMGGYRQAPGKERELVAAISSGGSTNYADSVKGRFTISRDNAKNTVYLQMNSLKPEDTAVYYCAADRKYFYLWLDQEHRYYWGQGTQVTVSS	low polyreactivity
